Measurements taken from publication PMC3378324 (Febs Letters, 2012).
Each block holds one binder with its values, some of them ahead of it.

Tests used:
[1] = molecular target: T1, Human Alix recombinant construct ALIX(V+PRR), residues 362-760 (human, UniProt Q8WUM4 362-760); experiment: pull-down
T1 sequence (looked up): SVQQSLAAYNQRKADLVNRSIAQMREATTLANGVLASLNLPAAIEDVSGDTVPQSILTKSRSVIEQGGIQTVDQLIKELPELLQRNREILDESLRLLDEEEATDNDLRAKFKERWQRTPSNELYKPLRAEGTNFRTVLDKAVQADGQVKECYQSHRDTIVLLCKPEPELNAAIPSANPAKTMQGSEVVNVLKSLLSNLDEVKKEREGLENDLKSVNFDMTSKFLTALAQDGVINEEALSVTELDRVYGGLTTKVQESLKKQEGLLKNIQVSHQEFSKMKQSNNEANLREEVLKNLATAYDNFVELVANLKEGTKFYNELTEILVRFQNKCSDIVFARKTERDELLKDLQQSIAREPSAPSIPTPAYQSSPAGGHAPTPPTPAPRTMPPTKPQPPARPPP

[2] = molecular target: T1, Human Alix recombinant construct …; experiment: NMR titration

binding result [1]: binds
B1: Fyn(R96I)-SH3-GST (domain or fragment)
chain: not shown

binding result [1]: binds
B2: Hck-SH3-GST (domain or fragment)
chain: not shown

binding result [2]: binds
B3: Fyn(R96I)-SH3, 6xHis C-terminal fusion (domain or fragment)
chain: not shown
